FireProtDB (doi:10.1093/protein/11.3.213)

Conditions: Escherichia phage lambda; pH 6.6; 25 °C; Thermal; Fluorescence; phosphate 0.1 M; reversible: yes; whole UniProt chain shown

B1: Endolysin wild type, P03706 (protein)
chain: MVEINNQRKAFLDMLAWSEGTDNGRQKTRNHGYDVIVGGELFTDYSDHPRKLVTLNPKLKSTGAGRYQLLSRWWDAYRKQLGLKDFSPKSQDAVALQQIKERGALPMIDRGDIRQAIDRCSNIWASLPGAGYGQFEHKADSLIAKFKEAGGTVREIDV
- unfolding free energy: 3.54 kcal/mol
